Results: the nanobody polyreactivity screen of Harvey et al. (2022)

Experiment: yeast display, Sf9 membrane polyspecificity reagent, FACS + sequencing; frameworks hold sequencing errors
How it was run: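 Nanobodies came from a synthetic yeast display library in Saccharomyces cerevisiae BJ5465, induced with galactose for 36–48 hours and stained for 1 hour at 4 °C with 10% biotinylated, detergent-solubilized Sf9 membrane reagent. Cells were enriched on streptavidin microbeads and then FACS-sorted, with low and high (top ~1%) gates set on anti-HA fluorescence for expression and streptavidin fluorescence for reagent binding. Each polyreactivity label reflects the gate a clone came from. Genes were amplified by colony PCR, sequenced by MiSeq 2 × 250 and filtered by CDR length.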

Sequence	polyreactivity (PSR sort gate)
QVQLVESGGGLVQAGGSLRLSCAASGSTFYGYGMGWYREAPGKERELVAAITGSGDTTYYADSVKGRFTISRDNAKNTVYLQMNSLKREDTAVYYCNAGWHAEYDYWGQGTQVTVSS	low polyreactivity
QVQLVESGGGLVQAGGSLRLSCAASGSTFYHNVMGWSRQAPGKERELVASIDTGDSTNYADSVKGRFTISRDNAKNTVYLQMNSLKPEDTAVYYCNADSYPALNKRGYDYWGQGTQVTVSS	low polyreactivity
QVQLVESGGGLVQAGGSLRLSCAASGSTFYINAMGWYRPAPGKERELVAAITDSGGSTYYADSVKGRFTISRDNAKNTVSLQMNSLKPEDTAVYYCATDGYDPRGYDYWGQGTQVTVSS	high polyreactivity
QVQLVESGGGLVQAGGSLRLSCAASGSTFYINAMGWYRQAPGKERELVAAISWSGGSTYYADSVKGRFTISRDNAKNTVYLQMNSMKPEDTAVYYCAADWYLGWSLDYDYWGQGTQVTVSS	low polyreactivity
QVQLVESGGGLVQAGGSLRLSCAASGSTFYIYAMGWYRQAPGKERELVAAINWRTGSTYYADSVKGRFTISRDNAKNTVYLQMNSLKPEDTAVYYCNAYTKHWSYWGQGTQVTVSS	high polyreactivity
QVQLVESGGGLVQAGGSLRLSCAASGSTFYIYAMGWYRQAPGKERELVAAITEGGGITYYADSVKGRFTISRDNAKNTVYLQMISLKPEDTAVYYCADVWGYYVLPYDYWGQGTQVTVSS	low polyreactivity
QVQLVESGGGLVQAGGSLRLSCAASGSTFYIYAMGWYRQAPGKERELVAAITWSGGSTYYADSVKGRFTISRDNAKNTVYLQMNSLKPEDTAVYYCAAQVWYSKSPTVDVYFDYDYWGQGTQVTVSS	low polyreactivity
QVQLVESGGGLVQAGGSLRLSCAASGSTFYKYAMGWYRQAPGKERELVASISRSGGSTSYADSVKGRFTISRDNAKNTVYLHMNSLIPEDTAVYYCAATWRQHPGSMGYWGQGTQVTVSS	high polyreactivity
QVQLVESGGGLVQAGGSLRLSCAASGSTFYKYAMGWYRQAPGKERELVASITWSGTSTYYADSVKGRFTISRDNAKNTVYLQMNSLKPEDTAVYYCNAGLEYYYWGYTWEFDYWGQGTQVTVSS	low polyreactivity
QVQLVESGGGLVQAGGSLRLSCAASGSTFYKYAMGWYRQAPGKERELVAVINYRGGSTYYADSVKGRFTISRDNAKNTVYLQMNSLKPEDTAVYYCAARQYWQNRRQYYYWGQGTQVTVSS	high polyreactivity
QVQLVESGGGLVQAGGSLRLSCAASGSTFYKYDMGWYRQAPGKEREFVAVISWSGGNTYYADSVKGRFTISRDNAKNNVYLQMNSLKPEDTAVYYCAADNYPDEYDYWGQGTQVTVSS	low polyreactivity
QVQLVESGGGLVQAGGSLRLSCAASGSTFYKYGMGWYRQAPGKERELVAAISGSGDSTYYADSVKGRFTISRDNAKNTVYLQMNSLKPEDTAVYYCNAGPWWYLHEYDYWGQGTQVTVSS	low polyreactivity
QVQLVESGGGLVQAGGSLRLSCAASGSTFYLNAKGWYRQAPGKERELVAASSSSGGSTYYADSVKGRFTISRDNAKNTVYLQMNSLKPEDTAVYYCACSCVPAVSVYGGDYWGQGTQVTVSS	low polyreactivity
QVQLVESGGGLVQAGGSLRLSCAASGSTFYLNAMGWYRQAPWKERELVASITWRGGSTYYADSVKGRFTISRDNAKNTVYLQMNSLKPEDTGVYYCAADATRLRTRYKRDYWGQGSQVTVSS	high polyreactivity
QVQLVESGGGLVQAGGSLRLSCAASGSTFYLNDMGWYRQAPGKERELVAAIDWSGGSTYYAVSVKGRFTISRDNAKNTVYLQMNSLKPEDTAVYYCAARLVYEWRRLDYFIAWDYWGQGTQVTVSS	low polyreactivity
QVQLVESGGGLVQAGGSLRLSCAASGSTFYLYAMGWYRPAPGKERELVASITSGDGSTYYADSVKGRFTISRDNAKNTVYLQMNSLKPEDTAVYYCNAVLEGWFYQYDYWGQGTQVTVSS	low polyreactivity
QVQLVESGGGLVQAGGSLRLSCAASGSTFYLYAMGWYRQAPGKERELVASITSGDGSTYYADSVKGRFTISRDNAKNTVYLQMNSLKPEDTAVYYCNAVLEGWFYQYDYWGQGTQVTVSS	low polyreactivity
QVQLVESGGGLVQAGGSLRLSCAASGSTFYLYAMGWYRQAPWKEREFVARITWSGGSTYYADSVKGRFTISRDNAKNTVYLQMNSLKPEDTAVYYCNATKTGPATVRYYYWGQGTQVTVSS	high polyreactivity
QVQLVESGGGLVQAGGSLRLSCAASGSTFYLYDMGWYRQAPGKEREMVAAISWSSGSTYYADSVKGRFTISRDNAKNTVYLQMNSLKPEETAVYYCAAGPSDTEYWLFDYWGQGTQVTVSS	high polyreactivity
QVQLVESGGGLVQAGGSLRLSCAASGSTFYNNAMGWYRQAPGKERELVAAITRTGGRTYYADSVKGRFTISRDNAKNTVYLQMNSLKPEDTAVYYCAALRYGQGSISAFDYWGQGTQVTVSS	high polyreactivity
QVQLVESGGGLVQAGGSLRLSCAASGSTFYNYALGWYRQAPGKERELVAAIRRSGGSTYYADSVKGRFTISRDNAKNTVYFQMNSLKPEDTAVYYCAASYYTRGYWGQGTQVTVSS	high polyreactivity

Sequence	polyreactivity (PSR sort gate)
QVQLVESGGGLVQAGGSLRLSCAASGSTFYPKAKAWNRQAPGKERELVAGISSGGGTYYADSVKGRFTISRDNAKNTVYLQMNSLKREDTAVYYCNAYFLSSSLDYWGQGTQVTVSS	low polyreactivity
QVQLVESGGGLVQAGGSLRLSCAASGSTFYPNAMGWSRQAPGKERELVAAISRGTRTKYADSVKGRFTISRDNAKNTVYLQMKSLKPEDTAVYYCAADTGTGLDWGQGTQVTVSS	high polyreactivity
QVQLVESGGGLVQAGGSLRLSCAASGSTFYPNAMGWYRQAPGKERELVARISGRGGRTYYADSVKGRFTISRDNAKNTVYLLMNSLKPEDTAVYYCSKDPSSDLDYDYWGQGTQVTVSS	low polyreactivity
QVQLVESGGGLVQAGGSLRLSCAASGSTFYPNPMGWYRQAPGKERELVAAISQRGGRTYYADSVKGRFTISRDNAKNTVYLQMNSLKPEDTAVYYCAATYQGYNSWYSFGYWGQGTQVTVSS	high polyreactivity
QVQLVESGGGLVQAGGSLRLSCAASGSTFYPYAMGWYRQAPGKERELVAAISSRDGRTYYADSVKGRFTISRDNAKNTVYLQMNSLKPEDTAVYYCAAVRALRKVRDYYYWGQGTQVTVSS	high polyreactivity
QVQLVESGGGLVQAGGSLRLSCAASGSTFYPYAMGWYRQAPGKEWEFVADITKRGGSTYYADSVKGRFTISRDNAKNTVYLQMNSLKPEDTAVYYCNAYNYDLVYPQYDYWGQGTQVTVSS	low polyreactivity
QVQLVESGGGLVQAGGSLRLSCAASGSTFYQNAMGWYRQAPGKERELVAAISRSGGGTYYADSVKGRFTISRDNAKNTVYLQMNSLKPEDTAVYYCAVRPTYNSWTRSTSRYYYWGQGTQVTVSS	high polyreactivity
QVQLVESGGGLVQAGGSLRLSCAASGSTFYQNAMGWYRQAPGKERELVAAISSRGGSTYYADSVKGRFTISRDNAKNTVYLQMNSLKPEDTAVYYCNTGRGSEMDYWGQGTQVTVSS	high polyreactivity
QVQLVESGGGLVQAGGSLRLSCAASGSTFYQNAMGWYRQAPGKERELVAAISSSGRTYYADSVKGRFTISRDNAKNTVYLQMNSLKPEDTAVYYCAVGAYGSLYSIRVAYGSMDYWGQGTQVTVSS	high polyreactivity
QVQLVESGGGLVQAGGSLRLSCAASGSTFYQYAMGWYRQAPGKERELVAAISKSGGSTYYADSVKGRFTISRDYSKNTVYLQMNSLKPDDTSVYYCATRWIKGRKMDYWGQGTQVTVSS	high polyreactivity
QVQLVESGGGLVQAGGSLRLSCAASGSTFYQYVMGWYRQAPGKERELVAAISGSGGSTYYADSVKGRFTISRDNAKTTVYLQMNSLKPEDTAVYYCAAVGRSKRDGYWGQGTQVTVSS	high polyreactivity
QVQLVESGGGLVQAGGSLRLSCAASGSTFYRNAMGWYRQAPGKEREFVATINRGGSTYYADSVKGRFTISRDNAKNTVYLQMNSLKPEDTAVYYCNAKYKQRHGYSAVTSYATYDYWGQGTQVTVSS	high polyreactivity
QVQLVESGGGLVQAGGSLRLSCAASGSTFYRNAMGWYRQAPGKERELVATITFNGGSTYYADSVKGRFTISRDNAKNTVYLQMNSLKPEDTAVYYCAKSHAIYYWWDESWGQGTQVTVSS	low polyreactivity
QVQLVESGGGLVQAGGSLRLSCAASGSTFYRNGMGWYRQAPGKERELVAGIDRSGGSTYYADSVKGRFTISRDNAKNTVYLQMNSLKPEDTAVYYCAAQNGYYPQHDYWGQGTQVTVSS	high polyreactivity
QVQLVESGGGLVQAGGSLRLSCAASGSTFYRYAMGWYRQAPGKEREFVAAITGSGGRTYYADSVKGRFTISRDNAKNTVYLQMNSLKPEDTAVYYCAARYYYFYQISYRYDYWGQGTQVTVSS	high polyreactivity
QVQLVESGGGLVQAGGSLRLSCAASGSTFYRYAMGWYRQAPGKERELVAAIRGSGGRTYYADSVKGRFTISRDNAKNTVYLQMNSLKPEDTAVYYCAAYRGVSQKGDYWGEGTQVTVSS	high polyreactivity
QVQLVESGGGLVQAGGSLRLSCAASGSTFYRYAMGWYRQAPGKERELVAAISTRSGSTYYADSVKGRFTISRDNAKNTVYLQMNSLKPEDTAVYYCAADGHKKTARKYYYWGQGTQVTVSS	low polyreactivity
QVQLVESGGGLVQAGGSLRLSCAASGSTFYRYAMGWYRQAPGKERELVAAITSAGSTNYADSVKGRFTISRDNGNNTVYLQMYSLKPVDTAVYYCAADHGRPYFSYDYWGQGSQVTVSS	low polyreactivity
QVQLVESGGGLVQAGGSLRLSCAASGSTFYRYAMGWYRQAPGKERELVATISWTDGRTNYADSVKGRFTISRDNAKNPVYLQMNSLKPEDTAVYDCAARRYRRWYDYWGQGTQVTVSS	high polyreactivity
QVQLVESGGGLVQAGGSLRLSCAASGSTFYRYVMGWYRQAPGKERELVAAISKSDGSTYYADSVKGRFTISRDNAKNTVYLQMNSLIPEDTAVYYCAADGSKWDWWEYEYWGQGTQVTVSS	high polyreactivity
